The source of these data is patent publication US20050164323A1, “Methods of treating asthma” (Wyeth, priority 2003, published 2005).

Substrate in data set [1]: CC(C)C[C@H](NC(=O)[C@H](CO)NC(=O)CNC(=O)[C@H](CCCCN)NC(=O)[C@H](CCCNC(=N)N)NC(=O)[C@H](C)NC(=O)[C@@H](N)Cc1ccccc1)C(=O)N[C@@H](CCCNC(=N)N)C(=O)N[C@@H](CCC(N)=O)C(=O)O
Description: coupled PK/LDH assay: steady-state kinetics, product and dead-end inhibition of PKC-θ KD. The class given is biochemical, human. To be noted: other: varied peptide substrate, saturating ATP, pH 7.5.

Substrate in data set [2]: Nc1ncnc2c1ncn2[C@@H]1O[C@H](COP(=O)(O)OP(=O)(O)OP(=O)(O)O)[C@@H](O)[C@H]1O
As to the kind of experiment: purified protein, by the assay type. To be noted: pH 7.5, 25.0 °C.

B1: PKC-θ KD (Homo sapiens) (protein)
chain: MGPELNKERPSLQIKLKIEDFILHKMLGKGSFGKVFLAEFKKTNQFFAIKALKKDVVLMDDDVECTMVEKRVLSLAWEHPFLTHMFCTFQTKENLFFVMEYLNGGDLMYHIQSCHKFDLSRATFYAAEIILGLQFLHSKGIVYRDLKLDNILLDKDGHIKIADFGMCKENMLGDAKTNTFCGTPDYIAPEILLGQKYNHSVDWWSFGVLLYEMLIGQSPFHGQDEEELFHSIRMDNPFYPRWLEKEAKDLLVKLFVREPEKRLGVRGDIRQHPLFREINWEELERKEIDPPFRPKVKSPFDCSNFDKEFLNEKPRLSFADRALINSMDQNMFRNFSFMNPGMERLISHHHHHH
notes: PKC-θ KD (amino acid residues 362 to 706) was cloned into a pET16b expression vector; hexa-histidine (C); Met-Gly (non-native N-terminal residues) (N); made in house; host or cells: E. coli BL21-DE3 (pET16b)
For the protein B1, the kcat/Km (usually the second-order rate constant that governs catalysis at low substrate concentration) in data set [1] stood at 2.7e+06 M⁻¹ s⁻¹. The Km (in general, the concentration of substrate that gives half-maximal velocity) stood at 25 µM in data set [2] (other: 0 mM NaCl); 321 ± 19 µM in data set [2] (other: initial velocity with peptide 1, 625 mM NaCl); 118 ± 17 µM in data set [2] (other: initial velocity, varied ATP vs peptide 3, 100 mM NaCl).
